Consider eight substances from US20220402989A1.

Broadly, the EC50 (read off the curve) is the concentration giving half of the maximal effect. Higher therefore signals weaker potency.

Where two headings read alike, the source gives them in different places.

The target in experiment [1] is IL2Rα/β/γ receptor (high affinity IL2 receptor) on YT/STAT5-Luc cells expressing endogenous or over-expressed human IL2Rα (human) (UniProt P01589). In words: cell-based or functional assay.
Experiment [2] addresses IL2Rβ/γ receptor (low/medium affinity IL2 receptor) on YT/STAT5-Luc cells with IL2Rα knocked out (human) (UniProt P14784). The experiment in a line: cell-based or functional assay.
For experiment [3], the target named is human PD1 (amino acids M1-L288 of NP_005009.2 with a 2Q=>E mutation) stably expressed on engineered reporter cells (human) (UniProt Q15116). In words: cell-based or functional assay.
Experiment [4] addresses IL2Rα/β/γ receptor (high affinity IL2 receptor) on YT/STAT5-Luc cells expressing endogenous or over-expressed human IL2Rα (human) (UniProt P01589). The experiment in a line: cell-based or functional assay. The source holds these as a separate data set.
Experiment [5] deals with IL2Rβ/γ receptor (low/medium affinity IL2 receptor) on YT/STAT5-Luc cells with IL2Rα knocked out (human) (UniProt P14784). In words: cell-based or functional assay. The source holds these as a separate data set.
The target is the same in experiment [6]. The experiment in a line: flow cytometry, YT/STAT5-Luc CD25 KO/PD1 OE cells, AF647 anti-human IgG secondary. Background: Flow cytometry measures light scatter and fluorescence of single cells or particles in a stream.
The target in experiment [7] is IL2Rα/β/γ receptor (high affinity IL2 receptor) on YT/STAT5-Luc cells expressing endogenous or over-expressed human IL2Rα (human) (UniProt P01589). In words: flow cytometry, YT/STAT5-Luc CD25 OE/PD1 OE cells, AF647 anti-human IgG secondary.
For experiment [8] the target is unchanged. The experiment in a line: flow cytometry on YT/STAT5-Luc/IL2Ra OE (CD25 OE/PD1 OE) cells, AF647 anti-human IgG secondary, gMFI on a log axis.

For IL2-Fc (Fc fusion), in experiment [1], the EC50, STAT5-Luc IL2 reporter assay, YT/Stat5-Luc amounted to 0.402 nM; the EC50, STAT5-Luc IL2 reporter assay, YT/Stat5-Luc/hIL2Rα was 0.0241 nM; the EC50, STAT5-Luc IL2 reporter assay, YT/Stat5-Luc/hIL2Rα/hPD1 was found to be 0.0232 nM; the EC50, STAT5-Luc IL2 reporter assay, YT/Stat5-Luc/hPD1 is 0.392 nM. In experiment [1], this substance had a Fold induction, STAT5-Luc IL2 reporter assay, YT/Stat5-Luc of 4.96 fold; a Fold induction, STAT5-Luc IL2 reporter assay, YT/Stat5-Luc/hIL2Rα of 5.49 fold; a Fold induction, STAT5-Luc IL2 reporter assay, YT/Stat5-Luc/hIL2Rα/hPD1 of 3.06 fold; a Fold induction, STAT5-Luc IL2 reporter assay, YT/Stat5-Luc/hPD1 of 7.97 fold. Also, in experiment [2], the EC50, STAT5-Luc IL2 reporter assay, YT/Stat5-Luc/IL2Rα KO worked out at 1.33 nM; the EC50, STAT5-Luc IL2 reporter assay, YT/Stat5-Luc/IL2Rα KO/hPD1 worked out at 0.442 nM; the Fold induction, STAT5-Luc IL2 reporter assay, YT/Stat5-Luc/IL2Rα KO was found to be 5.4 fold; the Fold induction, STAT5-Luc IL2 reporter assay, YT/Stat5-Luc/IL2Rα KO/hPD1 stood at 3.87 fold.

In experiment [3], Isotype control 1 (antibody) yielded a Fold induction, AP1-Luc PD1 antagonistic assay of 1.13 fold.

Isotype control 2 (antibody) had a Fold induction, AP1-Luc PD1 antagonistic assay in experiment [3] of 1.2 fold.

In experiment [1], “Isotype control (IL2 reporter assay, Tables 8 and 9) (antibody)” showed a Fold induction, STAT5-Luc IL2 reporter assay, YT/Stat5-Luc of 1.07 fold; a Fold induction, STAT5-Luc IL2 reporter assay, YT/Stat5-Luc/hIL2Rα of 1.07 fold; a Fold induction, STAT5-Luc IL2 reporter assay, YT/Stat5-Luc/hIL2Rα/hPD1 of 1 fold; a Fold induction, STAT5-Luc IL2 reporter assay, YT/Stat5-Luc/hPD1 of 1.08 fold. In experiment [2], this substance displayed a Fold induction, STAT5-Luc IL2 reporter assay, YT/Stat5-Luc/IL2Rα KO of 1.12 fold and a Fold induction, STAT5-Luc IL2 reporter assay, YT/Stat5-Luc/IL2Rα KO/hPD1 of 1.06 fold.

In the case of Isotype-IL2-IL2Ra, in experiment [1], the EC50 (M), STAT5-Luc IL2 reporter assay, CD25 OE/PD1 OE turned out to be 1.41e-09 M and the Max Fold induction, STAT5-Luc IL2 reporter assay, CD25 OE/PD1 OE was 7.78 fold. The Max Fold induction, STAT5-Luc IL2 reporter assay, CD25 KO/PD1 OE in experiment [2] came out at 1.25 fold.

For REGN9903 (isotype-IL2Rα-IL2 control), in experiment [1], the EC50 (M), STAT5-Luc IL2 reporter assay, CD25 OE/PD1 OE came out at 3.31e-10 M and the Max Fold induction, STAT5-Luc IL2 reporter assay, CD25 OE/PD1 OE worked out at 7 fold. Moreover, the Max Fold induction, STAT5-Luc IL2 reporter assay, CD25 KO/PD1 OE in experiment [2] was 4.37 fold.

For REGN9904 (non-targeted IL2Rα-IL2), in experiment [1], the EC50, PD1 competition STAT5-Luc assay, YT/STAT5-Luc/hIL2Rα/hPD1, no antibody ('-') was 0.703 nM; the EC50, PD1 competition STAT5-Luc assay, YT/STAT5-Luc/hIL2Rα/hPD1, with Comp 1 came out at 0.918 nM; the EC50, PD1 competition STAT5-Luc assay, YT/STAT5-Luc/hIL2Rα/hPD1, with Comp 2 came to 0.938 nM; the EC50, PD1 competition STAT5-Luc assay, YT/STAT5-Luc/hIL2Rα/hPD1, with REGN2810 amounted to 0.651 nM. In experiment [1], the EC50, PD1 competition STAT5-Luc assay, YT/STAT5-Luc/hIL2Rα/hPD1, with isotype control amounted to 0.791 nM; the EC50, STAT5-Luc IL2 reporter assay, YT/Stat5-Luc/hIL2Rα stood at 1.63 nM; the EC50, STAT5-Luc IL2 reporter assay, YT/Stat5-Luc/hIL2Rα/hPD1 was 0.971 nM; the Fold induction, STAT5-Luc IL2 reporter assay, YT/Stat5-Luc came out at 3.21 fold. In experiment [1], this substance yielded a Fold induction, STAT5-Luc IL2 reporter assay, YT/Stat5-Luc/hIL2Rα of 4.87 fold; a Fold induction, STAT5-Luc IL2 reporter assay, YT/Stat5-Luc/hIL2Rα/hPD1 of 2.77 fold; a Fold induction, STAT5-Luc IL2 reporter assay, YT/Stat5-Luc/hPD1 of 4.52 fold. Further, in experiment [2], the Fold induction, STAT5-Luc IL2 reporter assay, YT/Stat5-Luc/IL2Rα KO turned out to be 2.62 fold and the Fold induction, STAT5-Luc IL2 reporter assay, YT/Stat5-Luc/IL2Rα KO/hPD1 worked out at 2.59 fold. In addition, in experiment [3], the Fold induction, AP1-Luc PD1 antagonistic assay worked out at 1.08 fold. In experiment [4], this substance yielded an EC50 (M), STAT5-Luc IL2 reporter assay, CD25 OE/PD1 OE of 7.69e-10 M and a Max Fold induction, STAT5-Luc IL2 reporter assay, CD25 OE/PD1 OE of 4.57 fold. In addition, the Max Fold induction, STAT5-Luc IL2 reporter assay, CD25 KO/PD1 OE in experiment [5] stood at 3.24 fold. In experiment [6], the Fold induction (highest gMFI relative to gMFI without antibody) stood at 1.7 fold and the Max gMFI was 3990 gMFI. In experiment [7], this substance yielded a Fold induction (highest gMFI relative to gMFI without antibody) of 33.1 fold and a Max gMFI of 77600 gMFI. Besides, the EC50 (read off the curve) in experiment [8] came out at 10 nM.

In experiment [1], REGN10597 registered an EC50 (M), STAT5-Luc IL2 reporter assay, CD25 OE/PD1 OE of 3.3e-11 M; an EC50, STAT5-Luc IL2 reporter assay, YT/Stat5-Luc/hIL2Rα of 0.848 nM; an EC50, STAT5-Luc IL2 reporter assay, YT/Stat5-Luc/hIL2Rα/hPD1 of 0.0353 nM; an EC50, STAT5-Luc IL2 reporter assay, YT/Stat5-Luc/hPD1 of 0.175 nM. In experiment [1], this substance yielded a Fold induction, STAT5-Luc IL2 reporter assay, YT/Stat5-Luc of 3.29 fold; a Fold induction, STAT5-Luc IL2 reporter assay, YT/Stat5-Luc/hIL2Rα of 5.19 fold; a Fold induction, STAT5-Luc IL2 reporter assay, YT/Stat5-Luc/hIL2Rα/hPD1 of 2.88 fold; a Fold induction, STAT5-Luc IL2 reporter assay, YT/Stat5-Luc/hPD1 of 6.39 fold. The substance also showed a Max Fold induction, STAT5-Luc IL2 reporter assay, CD25 OE/PD1 OE in experiment [1] of 7.36 fold. In addition, in experiment [2], the EC50 (M), STAT5-Luc IL2 reporter assay, CD25 KO/PD1 OE turned out to be 5.78e-11 M; the EC50, STAT5-Luc IL2 reporter assay, YT/Stat5-Luc/IL2Rα KO/hPD1 turned out to be 0.191 nM; the Fold induction, STAT5-Luc IL2 reporter assay, YT/Stat5-Luc/IL2Rα KO was 2.85 fold; the Fold induction, STAT5-Luc IL2 reporter assay, YT/Stat5-Luc/IL2Rα KO/hPD1 amounted to 3.54 fold. For the same substance, the Max Fold induction, STAT5-Luc IL2 reporter assay, CD25 KO/PD1 OE in experiment [2] came out at 5.72 fold. In experiment [3], this substance came in with an EC50 (M), AP1-Luc PD1 antagonistic assay of 1.26e-08 M; an EC50, PD1 competition STAT5-Luc assay, YT/STAT5-Luc/IL2Rα KO/hPD1, no antibody ('-') of 0.129 nM; an EC50, PD1 competition STAT5-Luc assay, YT/STAT5-Luc/IL2Rα KO/hPD1, with Comp 1 of 0.306 nM; an EC50, PD1 competition STAT5-Luc assay, YT/STAT5-Luc/IL2Rα KO/hPD1, with Comp 2 of 0.281 nM. In experiment [3], this substance yielded an EC50, PD1 competition STAT5-Luc assay, YT/STAT5-Luc/IL2Rα KO/hPD1, with REGN2810 of 0.222 nM; an EC50, PD1 competition STAT5-Luc assay, YT/STAT5-Luc/IL2Rα KO/hPD1, with isotype control of 0.132 nM; an EC50, PD1 competition STAT5-Luc assay, YT/STAT5-Luc/hIL2Rα/hPD1, no antibody ('-') of 0.0545 nM; an EC50, PD1 competition STAT5-Luc assay, YT/STAT5-Luc/hIL2Rα/hPD1, with Comp 1 of 0.0765 nM. In experiment [3], this substance returned an EC50, PD1 competition STAT5-Luc assay, YT/STAT5-Luc/hIL2Rα/hPD1, with Comp 2 of 0.0805 nM; an EC50, PD1 competition STAT5-Luc assay, YT/STAT5-Luc/hIL2Rα/hPD1, with REGN2810 of 0.117 nM; an EC50, PD1 competition STAT5-Luc assay, YT/STAT5-Luc/hIL2Rα/hPD1, with isotype control of 0.0709 nM; a Fold induction, AP1-Luc PD1 antagonistic assay of 3.04 fold. In experiment [4], this substance gave an EC50 (M), STAT5-Luc IL2 reporter assay, CD25 OE/PD1 OE of 3.71e-11 M and a Max Fold induction, STAT5-Luc IL2 reporter assay, CD25 OE/PD1 OE of 5.1 fold. In experiment [5], this substance came in with an EC50 (M), STAT5-Luc IL2 reporter assay, CD25 KO/PD1 OE of 8.38e-11 M and a Max Fold induction, STAT5-Luc IL2 reporter assay, CD25 KO/PD1 OE of 4.36 fold.
